Experimental data: US20250361322A1
Values belong to the substance of their own block, whether it stands above or below them.

Legend:
[1] = target: full-length mouse TF with a C-terminal FLAG tag on Flp-In-CHO cells (mouse) (UniProt P20352); test: flow cytometry on CHO cells expressing mouse TF, MFI at 250 nM antibody
[2] = target: h159-219_r (human/rat chimera); test: live cell staining (HEK293, flow cytometry)
[3] = target: h108-219_r (human/rat chimera); test: live cell staining (HEK293, flow cytometry)
[4] = target: h159-189_r (human/rat chimera) (UniProt P13726); test: live cell staining (HEK293, flow cytometry)
[5] = target: h1-107_r (human/rat chimera); test: live cell staining (HEK293, flow cytometry)
[6] = target: r141-194_h (rat/human chimera) (UniProt P42533); test: live cell staining (HEK293, flow cytometry)
[7] = target: h159-174_r (human/rat chimera) (UniProt P13726); test: live cell staining (HEK293, flow cytometry)
[8] = target: h167-174_r (human/rat chimera) (UniProt P13726); test: live cell staining (HEK293, flow cytometry)
[9] = target: h1-107_r (human/rat chimera); test: live cell staining, flow cytometry, transfected HEK293
hTF_K149N (human) = hTF_K149N (human) (UniProt P13726); test: as above
[10] = target: r141-194_h (rat/human chimera) (UniProt P42533); test: as above
[11] = target: human Tissue Factor (TF) (human) (UniProt P13726); test: cell-based or functional assay

Sequence of h1-107_r (human/rat chimera) (chain, as listed by the source mutant limits assumed): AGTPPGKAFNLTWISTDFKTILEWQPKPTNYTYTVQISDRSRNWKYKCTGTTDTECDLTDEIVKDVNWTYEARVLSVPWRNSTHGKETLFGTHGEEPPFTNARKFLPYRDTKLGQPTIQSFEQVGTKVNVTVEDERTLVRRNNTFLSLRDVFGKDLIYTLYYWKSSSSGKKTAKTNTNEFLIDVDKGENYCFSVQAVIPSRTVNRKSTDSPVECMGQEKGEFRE
Sequence of h108-219_r (human/rat chimera) (chain, as listed by the source mutant limits assumed): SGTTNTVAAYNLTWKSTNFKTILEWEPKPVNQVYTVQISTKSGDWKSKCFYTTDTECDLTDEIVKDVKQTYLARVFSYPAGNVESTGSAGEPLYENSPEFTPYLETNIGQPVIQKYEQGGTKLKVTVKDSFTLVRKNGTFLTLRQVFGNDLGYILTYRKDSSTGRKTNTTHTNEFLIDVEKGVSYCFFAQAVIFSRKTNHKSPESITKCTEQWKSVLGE

MFI at 250 nM [1]: 7400
Substance: IgG1 isotype control (antibody)

Percentage antibody binding to TF construct relative to hTF [2]: < 50%
Percentage antibody binding to TF construct relative to hTF [3]: < 50%
Percentage antibody binding to TF construct relative to hTF [4]: < 50%
Percentage antibody binding to TF construct relative to hTF [5]: < 50%
Percentage antibody binding to TF construct relative to hTF [6]: < 50%
Percentage antibody binding to TF construct relative to hTF [7]: < 50%
Percentage antibody binding to TF construct relative to hTF [8]: < 50%
percent antibody binding to TF construct relative to hTF [9]: 41%
percent antibody binding to TF construct relative to hTF (hTF_K149N (human)): 145%
percent antibody binding to TF construct relative to hTF [10]: 32%
Substance: 5G9 (humanized TF8-5G9, CNTO 860) (antibody)

% GM-CSF at 2.56 nM [11]: 88%
% GM-CSF at 6.4 nM [11]: 86%
% GM-CSF at 100 nM [11]: 105%
% IL8 at 2.56 nM [11]: 90%
% IL8 at 6.4 nM [11]: 88%
% IL8 at 16 nM [11]: 84%
Substance: Control
